Results reported in the nanobody polyreactivity screen of Harvey et al. (2022).

assay: yeast display, Sf9 membrane polyspecificity reagent, FACS + sequencing; frameworks hold sequencing errors
How it was run: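 After 36–48 hours of galactose induction, yeast (Saccharomyces cerevisiae BJ5465) displaying a synthetic nanobody library were stained at 4 °C for 1 hour with 10% biotinylated, detergent-solubilized Sf9 membrane reagent. Streptavidin microbeads enriched the stained cells before FACS sorting into low and high (top ~1%) gates on anti-HA and streptavidin fluorescence. Each clone's polyreactivity label reflects its gate of origin.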

Sequence | polyreactivity (PSR sort gate)
QVQLVESGGGLVQAGGSLRLSCAASGFTFYRYVMGWYRQAPGKERELVAAITGGGRTYYADSVKGRFTISRDNAKNTVYLQMNSLKPEDTAVYYCNKAVPAWGLYDYWGQGTQVTVSS | low polyreactivity
QVQLVESGGGLVQAGGSLRLSCAASGFTFYSNSMGWYRQAPGKERELVAAISSGGGTTYYADSVKGRFTISRDNAKNTVYLQMNSLKPEYTAVYYCAAGLSFFRSYSGFYYWGQGTQVTVSS | low polyreactivity
QVQLVESGGGLVQAGGSLRLSCAASGFTFYSYAMGWYRQAPGKERELVAAISWSGTRTYYADSVKGRFTISRDIAKNTVYLQMNSLKPEDTAVYYCAARGYRYGYGYWGQGTQVTVSS | high polyreactivity
QVQLVESGGGLVQAGGSLRLSCAASGFTFYSYAMGWYRQAPGKERELVATITSAGSTNYADSVKGRFTISRDNAKNTVYLQMNSLKPEDTAVYYCAAVYYYIYYWGQVTQVTVSS | high polyreactivity
QVQLVESGGGLVQAGGSLRLSCAASGFTFYSYDMGWYRQAPGKERELVAAITWSGGSTYYADSVKGRFTISRDNAKNTVYLQMNSLKPEDTAVYYCAAELFPLQHFWVAYATRRYDYWGQGTQVTVSS | low polyreactivity
QVQLVESGGGLVQAGGSLRLSCAASGFTFYTNAMGWYRPAPGKEREFVAAISFSGGTYYADSVKGRFTISRDNAKNTVYLQMNSLKPEDTAVYYCNARYPRYYRGVIQYDYWGQGTQVTVSS | low polyreactivity
QVQLVESGGGLVQAGGSLRLSCAASGFTFYTNAMGWYRPAPWKERELVAAIYARTGRTYYADSVKGRFTISRDNAKNTVFLQMNSLKPEDTAVYYCAKDRQSSSTDYGYWGQGTQVTVSS | high polyreactivity
QVQLVESGGGLVQAGGSLRLSCAASGFTFYTYAMRLYRQAPGKERELVAAISKSGGSTYYADSVKGRFTISRDNAKNTVYLQMNSLKPEDTAVYYCAAVVVYFDEYDYWGQGTQVTVSS | low polyreactivity
QVQLVESGGGLVQAGGSLRLSCAASGFTFYVNAMGWYRQAPGKERELVAAISSRGGSTYYADSVKGRFTISRDNAKNTVYLQMNSLKPEDTAVYYCATAKSYGEDSWGQGTQVTVSS | high polyreactivity
QVQLVESGGGLVQAGGSLRLSCAASGFTFYVNAMGWYRQAPGKERELVAAISSSGTRTYYADSVKGRFTISRDNAKNTVYLQMNSLKPEDTAVYYCAARGQAYSGDRMYYWGQGTLVTVSS | high polyreactivity
QVQLVESGGGLVQAGGSLRLSCAASGFTFYVNAMGWYRQAPGKERELVAAISSSGTRTYYADSVKGRFTISRDNAKNTVYLQMNSLKPEDTAVYYCAARGQAYSGDRMYYWGQGTQVTVSS | high polyreactivity
QVQLVESGGGLVQAGGSLRLSCAASGFTFYWYAMGWYRQAPGKEREFVAAIDQSGGSTYYADSVKGRFTISRDNAKNTVYLQMNSLKPEDTAVYYCAKLYTIGYDYWGQGTQVTVSS | low polyreactivity
QVQLVESGGGLVQAGGSLRLSCAASGFTFYWYDMGWDRQAPGKEREFVAAIVQSGGSTYYADSVKGRFSISRDNAKITVYLQMKSLKPEDTAVYYGAARYILWDGDSWTEFDYWGQGTQVTVSS | low polyreactivity
QVQLVESGGGLVQAGGSLRLSCAASGFTFYYNAMGWYRQAPGKERELVAAISSNGGSTYYADSVKGRFTISRDNAKNTVYLQMNSLKPEDTAVYYCAAYPKSSRWDFESWGQGTQVTVSS | low polyreactivity
QVQLVESGGGLVQAGGSLRLSCAASGFTFYYNAMGWYRQAPGKERELVAGISGRGGTTYYADSVKGRFTISRDNAKNTVYLQMNSLKPEDTAVYYCAARKVRARSKFEYWGQGTQVTVSS | high polyreactivity
QVQLVESGGGLVQAGGSLRLSCAASGFTFYYYAMGWSRQAPGKERELVAAISSAGGRTYYADSVKGRFTISRDNAKNTVYLQMNSLKPEDTAVYYCAATIKAYPTPLLGDYWGQGTQVTVSS | high polyreactivity
QVQLVESGGGLVQAGGSLRLSCAASGFTFYYYAMGWYRQAPGKERELVAAINWDGRTYYADSVKGRFTISRDNAKNTVYLQMNTLKPEDTAVYYCAAGYYLLTYRYDYWGQGTQVTVSS | low polyreactivity
